The values below come from US20100216170A1.

For experiment [1], the target named is mutant membrane-bound TNFα on stably transfected CHO cells (B-220 cells) (UniProt P01375). As to the kind of experiment: FACS, gate P4 (CHO cells with anti-CD19 beads), FIG. 4. A general note: Flow cytometry measures light scatter and fluorescence of single cells or particles in a stream.
Experiment [2] has the same target. The experiment in a line: FACS, beads with CHO-TNFα (B220), sample 2.
The target is the same in experiment [3]. The experiment in a line: FACS, gate P4 (CHO cells with anti-CD19 beads), middle panel of FIG. 3.

Sequence of UniProt P01375 (P01375 whole entry, change not shown): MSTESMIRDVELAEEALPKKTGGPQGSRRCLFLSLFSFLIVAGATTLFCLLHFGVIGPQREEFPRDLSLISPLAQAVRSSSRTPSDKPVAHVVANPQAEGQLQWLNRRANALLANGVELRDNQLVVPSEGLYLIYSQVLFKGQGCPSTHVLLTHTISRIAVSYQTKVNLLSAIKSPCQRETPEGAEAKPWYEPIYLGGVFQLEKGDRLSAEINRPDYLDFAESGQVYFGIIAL

Regarding “APC-labeled unrelated antibody (anti-CD19) coated on beads”, in experiment [1], the #Events was found to be 2 events, the % Parent was 0% and the % Total was determined as 0%. Moreover, the % bound beads in experiment [2] worked out at 0.9%. In experiment [3], the #Events was 6 events, the % Parent was determined as 0.1% and the % Total is 0.1%.
